From patent US20150344570A1 (published 2015)

T1: FcγRIIa H (FcγRIIa, allotype with His at position 131), extracellular domain with C-terminal His tag (human, UniProt P12318 34-217)
T1 construct: extracellular domain; also called FcgRIIa H; 2aH; not shown: His tag at the C terminus
T1 sequence (looked up): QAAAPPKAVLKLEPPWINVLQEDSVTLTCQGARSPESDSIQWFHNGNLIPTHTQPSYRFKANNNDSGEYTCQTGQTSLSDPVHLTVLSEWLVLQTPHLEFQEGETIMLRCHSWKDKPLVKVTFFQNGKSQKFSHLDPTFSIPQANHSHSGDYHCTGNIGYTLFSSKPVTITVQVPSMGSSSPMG

T2: FcγRIIb, extracellular domain with C-terminal His tag (human, UniProt P31994 43-217)
T2 construct: extracellular domain; also called FcgRIIb; 2b; not shown: His tag at the C terminus
T2 sequence (looked up): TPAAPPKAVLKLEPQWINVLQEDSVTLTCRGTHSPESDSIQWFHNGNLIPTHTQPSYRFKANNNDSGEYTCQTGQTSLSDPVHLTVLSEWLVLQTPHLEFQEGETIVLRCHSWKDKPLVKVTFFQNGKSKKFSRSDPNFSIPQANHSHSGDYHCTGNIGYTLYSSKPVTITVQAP

B1: GpH7-A5/GpH7-B3 variant K326_06M/GpL16-k0 (antibody, human IgG1, kappa)
heavy 1: not shown
heavy 2: not shown
light: DIVMTQSPLSLPVTPGEPASISCQASESLVHSNRNTYLHWYLQKPGQSPQLLIYKVSNRFSGVPDRFSGSGSGTDFTLKISRVEAEDVGVYYCSQNTHVPPTFGQGTKVEIERTVAAPSVFIFPPSDEQLKSGTASVVCLLNNFYPREAKVQWKVDNALQSGNSQESVTEQDSKDSTYSLSSTLTLSKADYEKHKVYACEVTHQGLSSPVTKSFNRGEC
notes: Heterodimerized anti-glypican-3 IgG1; mutation in one H chain only; also called He Ab
B2: GpH7-A5/GpH7-B3 variant K326_14T/GpL16-k0 (antibody, human IgG1, kappa)
heavy 1: not shown
heavy 2: not shown
light: B1 light
notes: as for B1
B3: GpH7-A5/GpH7-B3 variant N325_03V/GpL16-k0 (antibody, human IgG1, kappa)
heavy 1: not shown
heavy 2: not shown
light: B1 light
notes: as for B1
B4: GpH7-A5/GpH7-B3 variant N325_08L/GpL16-k0 (antibody, human IgG1, kappa)
heavy 1: not shown
heavy 2: not shown
light: B1 light
notes: as for B1
B5: GpH7-A5/GpH7-B3 variant N325_09D/GpL16-k0 (antibody, human IgG1, kappa)
heavy 1: not shown
heavy 2: not shown
light: B1 light
notes: as for B1
B6: GpH7-A5/GpH7-B3 variant K326_20W/GpL16-k0 (antibody, human IgG1, kappa)
heavy 1: not shown
heavy 2: not shown
light: B1 light
notes: as for B1
B7: GpH7-A5/GpH7-B3 variant K326_10E/GpL16-k0 (antibody, human IgG1, kappa)
heavy 1: not shown
heavy 2: not shown
light: B1 light
notes: as for B1
B8: GpH7-A5/GpH7-B3 variant K326_08L/GpL16-k0 (antibody, human IgG1, kappa)
heavy 1: not shown
heavy 2: not shown
light: B1 light
notes: as for B1
B9: GpH7-A5/GpH7-B3 variant N325_10E/GpL16-k0 (antibody, human IgG1, kappa)
heavy 1: not shown
heavy 2: not shown
light: B1 light
notes: as for B1
B10: GpH7-A5/GpH7-B3 variant N325_02A/GpL16-k0 (antibody, human IgG1, kappa)
heavy 1: not shown
heavy 2: not shown
light: B1 light
notes: as for B1
B11: GpH7-A5/GpH7-B3 variant N325_05P/GpL16-k0 (antibody, human IgG1, kappa)
heavy 1: not shown
heavy 2: not shown
light: B1 light
notes: as for B1
B12: GpH7-A5/GpH7-B3 variant K326_09D/GpL16-k0 (antibody, human IgG1, kappa)
heavy 1: not shown
heavy 2: not shown
light: B1 light
notes: as for B1
B13: GpH7-A5/GpH7-B3 variant K326_07I/GpL16-k0 (antibody, human IgG1, kappa)
heavy 1: not shown
heavy 2: not shown
light: B1 light
notes: as for B1
B14: GpH7-A5/GpH7-B3 variant N325_04F/GpL16-k0 (antibody, human IgG1, kappa)
heavy 1: not shown
heavy 2: not shown
light: B1 light
notes: as for B1
B15: GpH7-A5/GpH7-B3 variant N325_07I/GpL16-k0 (antibody, human IgG1, kappa)
heavy 1: not shown
heavy 2: not shown
light: B1 light
notes: as for B1
B16: GpH7-A5/GpH7-B3 variant K326_15Y/GpL16-k0 (antibody, human IgG1, kappa)
heavy 1: not shown
heavy 2: not shown
light: B1 light
notes: as for B1
B17: GpH7-A5/GpH7-B3 variant N325_06M/GpL16-k0 (antibody, human IgG1, kappa)
heavy 1: not shown
heavy 2: not shown
light: B1 light
notes: as for B1
B18: GpH7-A5/GpH7-B3 variant K326_19Q/GpL16-k0 (antibody, human IgG1, kappa)
heavy 1: not shown
heavy 2: not shown
light: B1 light
notes: as for B1

target: T1, FcγRIIa H (FcγRIIa, allotype with His …); assay: SPR (Biacore); He/Con_2aH divided by He/Con_2b (FcγRIIb)

He_2aH/2b (IIaH/IIb) [ratio]	Binder
0.63	B1
0.77	B2
0.41	B3
0.26	B4
0.43	B5
0.56	B6
0.51	B7
0.52	B8
0.55	B9
0.74	B10
0.8	B11
0.57	B12
0.5	B13
0.23	B14
0.22	B15
0.62	B16
0.22	B17
0.73	B18

target: T2, FcγRIIb, extracellular domain with …; assay: SPR (Biacore), relative binding vs GpH7-A5/GpH7-B3/GpL16-k0

He/Con_2b	Binder
165 % of HeCon Ab (=100)	B1
150 % of HeCon Ab (=100)	B2
111 % of HeCon Ab (=100)	B3
197 % of HeCon Ab (=100)	B4
124 % of HeCon Ab (=100)	B5
148 % of HeCon Ab (=100)	B6
200 % of HeCon Ab (=100)	B7
177 % of HeCon Ab (=100)	B8
95.9 % of HeCon Ab (=100)	B9
64.4 % of HeCon Ab (=100)	B10
26 % of HeCon Ab (=100)	B11
193 % of HeCon Ab (=100)	B12
199 % of HeCon Ab (=100)	B13
143 % of HeCon Ab (=100)	B14
171 % of HeCon Ab (=100)	B15
159 % of HeCon Ab (=100)	B16
217 % of HeCon Ab (=100)	B17
139 % of HeCon Ab (=100)	B18

target: T1, FcγRIIa H (FcγRIIa, allotype with His …); assay: as above

He/Con_2aH	Binder
103 % of HeCon Ab (=100)	B1
114 % of HeCon Ab (=100)	B2
45.2 % of HeCon Ab (=100)	B3
52 % of HeCon Ab (=100)	B4
53.1 % of HeCon Ab (=100)	B5
83.3 % of HeCon Ab (=100)	B6
102 % of HeCon Ab (=100)	B7
92.7 % of HeCon Ab (=100)	B8
52.5 % of HeCon Ab (=100)	B9
47.6 % of HeCon Ab (=100)	B10
20.7 % of HeCon Ab (=100)	B11
110 % of HeCon Ab (=100)	B12
100 % of HeCon Ab (=100)	B13
33.4 % of HeCon Ab (=100)	B14
38.1 % of HeCon Ab (=100)	B15
98.3 % of HeCon Ab (=100)	B16
48.2 % of HeCon Ab (=100)	B17
101 % of HeCon Ab (=100)	B18
